Laboratory results reported in article PMC10248797, “Ndel1 disfavors dynein–dynactin–adaptor complex formation in two distinct ways” (The Journal of Biological Chemistry, 2023).
Positions count from the first letter of the chain named. Names and notes keep the numbering of the source.

B1: Full-length Ndel1 with N-terminal HaloTag and C-terminal 6X-His tag (natural protein, UniProt Q9GZM8 1-345, looked up)
chain: MDGEDIPDFSSLKEETAYWKELSLKYKQSFQEARDELVEFQEGSRELEAELEAQLVQAEQRNRDLQADNQRLKYEVEALKEKLEHQYAQSYKQVSVLEDDLSQTRAIKEQLHKYVRELEQANDDLERAKRATIVSLEDFEQRLNQAIERNAFLESELDEKESLLVSVQRLKDEARDLRQELAVRERQQEVTRKSAPSSPTLDCEKMDSAVQASLSLPATPVGKGTENTFPSPKAIPNGFGTSPLTPSARISALNIVGDLLRKVGALESKLAACRNFAKDQASRKSYISGNVNCGVLNGNGTKFSRSGHTSFFDKGAVNGFDPAPPPPGLGSSRPSSAPGMLPLSV
notes: Coupled to Magne HaloTag beads through the HaloTag; also called FL-Ndel1; Halo-Ndel1; source: Sf9 cells, purified (IgG Sepharose, TEV cleavage, size-exclusion chromatography); not shown: ZZ, N-terminal, cleaved; HaloTag, N-terminal, kept; His6, C-terminal, kept
B2: Full-length phosphomimetic Ndel1 (S198D; T219D; S231D; S242D) with N-terminal HaloTag and C-terminal 6X-His tag (natural protein, UniProt Q9GZM8 1-345, looked up)
chain: B1 chain with S198D, T219D, S231D, S242D
notes: Ndel1 with the four CDK1 sites changed to aspartic acid; also called FL-Ndel1PM; Halo-Ndel1PM; source: Sf9 cells, purified (IgG Sepharose, TEV cleavage, size-exclusion chromatography); not shown: ZZ, N-terminal, cleaved; HaloTag, N-terminal, kept; His6, C-terminal, kept
B3: Halo-tagged full-length Ndel1 with C-terminal 6X-His tag (natural protein, UniProt Q9GZM8 1-345, looked up)
chain: B1 chain
notes: Ndel1; 345 residues by the printed range 194-345; also called FL-Ndel1; ZZ-TEV-Halo-Ndel1-His6; source: Sf9, purified (IgG Sepharose, TEV cleavage, SEC); not shown: ZZ, N-terminal, cleaved; HaloTag, N-terminal, kept; His6, C-terminal, kept
B4: Halo-tagged Ndel1(1-192), N-terminal coiled coil only, with C-terminal 6X-His tag (domain or fragment, UniProt Q9GZM8 1-192, looked up)
chain: MDGEDIPDFSSLKEETAYWKELSLKYKQSFQEARDELVEFQEGSRELEAELEAQLVQAEQRNRDLQADNQRLKYEVEALKEKLEHQYAQSYKQVSVLEDDLSQTRAIKEQLHKYVRELEQANDDLERAKRATIVSLEDFEQRLNQAIERNAFLESELDEKESLLVSVQRLKDEARDLRQELAVRERQQEVTR
notes: Ndel1 residues 1-192; also called NT-Ndel1; ZZ-TEV-Halo-Ndel1(1-192)-His6; source: Sf9, purified (IgG Sepharose, TEV cleavage, SEC); not shown: ZZ, N-terminal, cleaved; HaloTag, N-terminal, kept; His6, C-terminal, kept
B5: Halo-tagged full-length Ndel1 with the four CDK1 sites mutated to aspartic acid (S198D; T219D; S231D; S242D), with C-terminal 6X-His tag (natural protein, UniProt Q9GZM8 1-345, looked up)
chain: B1 chain with S198D, T219D, S231D, S242D
notes: Ndel1 with four phosphomimetic mutations; also called FL-Ndel1^PM; Ndel1^PM; source: Sf9, purified (IgG Sepharose, TEV cleavage, SEC); not shown: ZZ, N-terminal, cleaved; HaloTag, N-terminal, kept; His6, C-terminal, kept
B6: Lis1 (in solution) (natural protein, UniProt P43034 1-410, looked up)
chain: MVLSQRQRDELNRAIADYLRSNGYEEAYSVFKKEAELDVNEELDKKYAGLLEKKWTSVIRLQKKVMELESKLNEAKEEFTSGGPLGQKRDPKEWIPRPPEKYALSGHRSPVTRVIFHPVFSVMVSASEDATIKVWDYETGDFERTLKGHTDSVQDISFDHSGKLLASCSADMTIKLWDFQGFECIRTMHGHDHNVSSVAIMPNGDHIVSASRDKTIKMWEVQTGYCVKTFTGHREWVRMVRPNQDGTLIASCSNDQTVRVWVVATKECKAELREHEHVVECISWAPESSYSSISEATGSETKKSGKPGPFLLSGSRDKTIKMWDVSTGMCLMTLVGHDNWVRGVLFHSGGKFILSCADDKTLRVWDYKNKRCMKTLNAHEHFVTSLDFHKTAPYVVTGSVDQTVKVWECR
B7: Halo-Lis1 (natural protein, UniProt P43034 1-410, looked up)
chain: B6 chain
notes: Lis1; also called ZZ-TEV-Halo-Lis1; Lis1-conjugated beads; source: Sf9, purified (IgG Sepharose, TEV cleavage, SEC); not shown: ZZ, N-terminal, cleaved; HaloTag, N-terminal, kept
B8: Halo-tagged Ndel1 with the C-terminal coiled coil (256-291) deleted, with C-terminal 6X-His tag (natural protein, UniProt Q9GZM8 1-345, looked up)
chain: MDGEDIPDFSSLKEETAYWKELSLKYKQSFQEARDELVEFQEGSRELEAELEAQLVQAEQRNRDLQADNQRLKYEVEALKEKLEHQYAQSYKQVSVLEDDLSQTRAIKEQLHKYVRELEQANDDLERAKRATIVSLEDFEQRLNQAIERNAFLESELDEKESLLVSVQRLKDEARDLRQELAVRERQQEVTRKSAPSSPTLDCEKMDSAVQASLSLPATPVGKGTENTFPSPKAIPNGFGTSPLTPSARISALNINCGVLNGNGTKFSRSGHTSFFDKGAVNGFDPAPPPPGLGSSRPSSAPGMLPLSV
notes: Ndel1 with residues 256-291 deleted; also called Ndel1^ΔCTCC; FL-Ndel1^ΔCTCC; source: Sf9, purified (IgG Sepharose, TEV cleavage, SEC); not shown: ZZ, N-terminal, cleaved; HaloTag, N-terminal, kept; His6, C-terminal, kept

Legend:
Lis1 = target: T1, Lis1 (UniProt P43034 1-410); test: pull-down; depletion of 5 nM Lis1 from solution by Ndel1 coupled to Magne HaloTag beads; binding buffer with 150 mM KCl; SDS-PAGE densitometry of the supernatant; quadratic binding equation; settings: both partners purified
T1 construct: Lis1; also called ZZ-TEV-Lis1; source: Sf9 cells, purified (IgG Sepharose, TEV cleavage, size-exclusion chromatography); not shown: ZZ, N-terminal, cleaved
T1 sequence (looked up): B6 chain

[1] = target: T2, SNAP-tagged, recombinant full-length human cytoplasmic dynein-1 with all associated accessory chains (human, UniProt Q14204 1-4646; Q13409-3 1-612; O43237 1-492; P63172 1-113; Q9NP97 1-96; P63167 …); test: cell-based or functional assay
Lis1 (in solution) = target: B6; test: pull-down; quantitative depletion assay: Ndel1 construct on Magne HaloTag beads via the N-terminal HaloTag; 5 nM Lis1 in solution; binding buffer with 150 mM KCl; SDS-PAGE densitometry; quadratic binding equation; settings: both partners purified
[2] = target: T2, SNAP-tagged, recombinant full-length …; test: pull-down; quantitative depletion assay: 0-600 nM Ndel1 construct coupled to Magne HaloTag beads via the HaloTag; 5 nM dynein in solution, 45 min; binding buffer 30 mM Hepes pH 7.4, 36 mM KCl, 1 mM ADP, 1 mg/ml casein, 0.1% NP-40; supernatant on SDS-PAGE, densitometry; one-site fit with Bmax set to 1; settings: both partners purified
[3] = target: T2, SNAP-tagged, recombinant full-length …; test: pull-down; dynein-Lis1 binding curve (Fig. S4G); one-site fit with Bmax set to 1; who was on the beads is not told for this curve; settings: both partners purified

B1
Kd (Lis1): 4.6 nM

B2
Kd (Lis1): 3.9 nM

B3
landing rate of processive DDB events (smTIRF) with 300 nM FL-Ndel1, against DDB alone [1]: ~5 fold reduction
processive landing rate of DDB (smTIRF) with 50 nM FL-Ndel1, against DDB alone [1]: 1.7 fold reduction
velocity of DDB (smTIRF) with 300 nM FL-Ndel1, against DDB alone [1]: ~2 fold reduction
Kd (Lis1 (in solution)): ~4 nM
Kd [2]: ~33 nM

B4
landing rate of processive DDB events (smTIRF) with 300 nM NT-Ndel1, against DDB alone [1]: ~2 fold reduction
velocity of DDB (smTIRF) with 300 nM NT-Ndel1, against DDB alone [1]: ~2 fold reduction
Kd (Lis1 (in solution)): ~1.2 nM
Kd [2]: 79 nM

B5
processive landing rate of DDB (smTIRF) with 50 nM FL-Ndel1^PM, against DDB alone [1]: 10 fold reduction
Kd (Lis1 (in solution)): ~4 nM

B6
landing rate of DDB (smTIRF) with 50 nM Lis1 and 50 nM FL-Ndel1^PM together, against DDB alone [1]: ~2 fold reduction

B7
Kd [3]: 101 nM

B8
Kd [2]: 55 nM
